{"source": "patent US20260152543A1", "about": "(KRIYA THERAPEUTICS, published 2026)", "molecules": {"B1": {"name": "Recombinant His-tagged human CR2 (R&D Systems) (receptor, UniProt P20023 21-971, looked up)", "chain": "ISCGSPPPILNGRISYYSTPIAVGTVIRYSCSGTFRLIGEKSLLCITKDKVDGTWDKPAPKCEYFNKYSSCPEPIVPGGYKIRGSTPYRHGDSVTFACKTNFSMNGNKSVWCQANNMWGPTRLPTCVSVFPLECPALPMIHNGHHTSENVGSIAPGLSVTYSCESGYLLVGEKIINCLSSGKWSAVPPTCEEARCKSLGRFPNGKVKEPPILRVGVTANFFCDEGYRLQGPPSSRCVIAGQGVAWTKMPVCEEIFCPSPPPILNGRHIGNSLANVSYGSIVTYTCDPDPEEGVNFILIGESTLRCTVDSQKTGTWSGPAPRCELSTSAVQCPHPQILRGRMVSGQKDRYTYNDTVIFACMFGFTLKGSKQIRCNAQGTWEPSAPVCEKECQAPPNILNGQKEDRHMVRFDPGTSIKYSCNPGYVLVGEESIQCTSEGVWTPPVPQCKVAACEATGRQLLTKPQHQFVRPDVNSSCGEGYKLSGSVYQECQGTIPWFMEIRLCKEITCPPPPVIYNGAHTGSSLEDFPYGTTVTYTCNPGPERGVEFSLIGESTIRCTSNDQERGTWSGPAPLCKLSLLAVQCSHVHIANGYKISGKEAPYFYNDTVTFKCYSGFTLKGSSQIRCKADNTWDPEIPVCEKETCQHVRQSLQELPAGSRVELVNTSCQDGYQLTGHAYQMCQDAENGIWFKKIPLCKVIHCHPPPVIVNGKHTGMMAENFLYGNEVSYECDQGFYLLGEKKLQCRSDSKGHGSWSGPSPQCLRSPPVTRCPNPEVKHGYKLNKTHSAYSHNDIVYVDCNPGFIMNGSRVIRCHTDNTWVPGVPTCIKKAFIGCPPPPKTPNGNHTGGNIARFSPGMSILYSCDQGYLLVGEALLLCTHEGTWSQPAPHCKEVNCSSPADMDGIQKGLEPRKMYQYGAVVTLECEDGYMLEGSPQSQCQSDHQWNPPLAVCRSR", "notes": "Bought protein; also called rhCR2; hCR2; not shown: His tag"}}, "key": {"[1]": {"molecular_target": "C4b (Complement Tech) (UniProt P0C0L4)", "sequence (P0C0L4 20-1744)": "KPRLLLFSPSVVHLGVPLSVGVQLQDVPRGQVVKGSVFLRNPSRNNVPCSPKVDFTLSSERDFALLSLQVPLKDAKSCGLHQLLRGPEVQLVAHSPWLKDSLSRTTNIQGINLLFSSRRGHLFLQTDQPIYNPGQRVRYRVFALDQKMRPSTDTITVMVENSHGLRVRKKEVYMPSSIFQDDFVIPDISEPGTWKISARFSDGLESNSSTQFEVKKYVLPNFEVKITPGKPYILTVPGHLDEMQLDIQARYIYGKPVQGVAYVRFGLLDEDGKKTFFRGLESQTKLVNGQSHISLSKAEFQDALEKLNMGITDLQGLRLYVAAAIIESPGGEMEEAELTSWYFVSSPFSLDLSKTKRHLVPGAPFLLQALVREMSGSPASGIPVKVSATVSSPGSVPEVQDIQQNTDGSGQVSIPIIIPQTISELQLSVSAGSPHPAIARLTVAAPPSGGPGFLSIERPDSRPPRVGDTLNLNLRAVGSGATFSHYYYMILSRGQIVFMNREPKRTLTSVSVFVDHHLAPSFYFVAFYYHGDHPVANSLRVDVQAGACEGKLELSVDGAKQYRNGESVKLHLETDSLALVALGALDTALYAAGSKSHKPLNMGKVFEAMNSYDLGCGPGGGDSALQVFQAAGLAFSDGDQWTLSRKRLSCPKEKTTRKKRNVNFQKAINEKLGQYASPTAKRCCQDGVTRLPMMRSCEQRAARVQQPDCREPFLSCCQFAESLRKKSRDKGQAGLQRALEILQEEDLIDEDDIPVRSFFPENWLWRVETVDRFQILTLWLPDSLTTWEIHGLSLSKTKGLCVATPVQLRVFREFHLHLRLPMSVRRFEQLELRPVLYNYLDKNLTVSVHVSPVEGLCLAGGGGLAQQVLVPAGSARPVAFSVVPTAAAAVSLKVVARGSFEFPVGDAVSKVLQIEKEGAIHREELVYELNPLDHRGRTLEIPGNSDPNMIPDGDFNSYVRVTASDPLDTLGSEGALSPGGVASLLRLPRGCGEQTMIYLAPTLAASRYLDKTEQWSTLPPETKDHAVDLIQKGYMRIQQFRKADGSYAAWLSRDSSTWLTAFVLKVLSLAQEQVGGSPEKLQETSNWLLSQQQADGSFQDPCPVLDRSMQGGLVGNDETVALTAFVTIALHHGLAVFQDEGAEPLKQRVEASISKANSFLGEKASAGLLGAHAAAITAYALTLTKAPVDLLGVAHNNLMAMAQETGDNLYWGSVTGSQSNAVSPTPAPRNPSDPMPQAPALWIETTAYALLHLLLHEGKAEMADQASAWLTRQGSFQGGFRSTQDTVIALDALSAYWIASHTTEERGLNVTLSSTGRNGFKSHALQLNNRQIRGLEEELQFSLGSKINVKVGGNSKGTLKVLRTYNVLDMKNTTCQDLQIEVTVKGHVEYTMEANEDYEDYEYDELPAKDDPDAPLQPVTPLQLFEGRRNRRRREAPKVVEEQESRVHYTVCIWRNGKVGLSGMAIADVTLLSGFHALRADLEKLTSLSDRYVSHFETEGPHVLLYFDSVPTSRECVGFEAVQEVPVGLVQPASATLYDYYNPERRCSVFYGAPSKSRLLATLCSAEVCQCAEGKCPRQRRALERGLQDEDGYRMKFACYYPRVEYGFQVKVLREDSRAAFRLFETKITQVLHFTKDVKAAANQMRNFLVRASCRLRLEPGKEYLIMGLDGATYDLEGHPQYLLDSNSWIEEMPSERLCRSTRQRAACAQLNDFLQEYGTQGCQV", "assay": "BLI (GatorPrime), ratio of KD to that of rhCR1 for C4b"}, "[2]": {"molecular_target": "C4b (Complement Tech) (UniProt P0C0L4)", "assay": "BLI (GatorPrime), His-tagged protein on Ni-NTA probe, ligand in 7-point dilution series"}, "[3]": {"molecular_target": "C4b (Complement Tech) (UniProt P0C0L4)", "assay": "SPR (Biacore 8K), His-tagged fusion protein captured by anti-His on CM5, C4b analyte 62.5-2000 nM, steady state affinity"}, "[4]": {"molecular_target": "C4b (Complement Tech) (UniProt P0C0L4)", "assay": "SPR (Biacore 8K), His-tagged receptor captured by anti-His on CM5, C4b analyte 31.25-2000 nM, steady state affinity"}, "[5]": {"molecular_target": "T1, iC3b (Complement Tech) (UniProt P01024 23-667; P01024 749-1303; P01024 1321-1663, limits assumed)", "T1 construct": "iC3b is a multi-chain fragment of C3", "T1 sequence (P01024 23-667 limits assumed, chain 1 of 3)": "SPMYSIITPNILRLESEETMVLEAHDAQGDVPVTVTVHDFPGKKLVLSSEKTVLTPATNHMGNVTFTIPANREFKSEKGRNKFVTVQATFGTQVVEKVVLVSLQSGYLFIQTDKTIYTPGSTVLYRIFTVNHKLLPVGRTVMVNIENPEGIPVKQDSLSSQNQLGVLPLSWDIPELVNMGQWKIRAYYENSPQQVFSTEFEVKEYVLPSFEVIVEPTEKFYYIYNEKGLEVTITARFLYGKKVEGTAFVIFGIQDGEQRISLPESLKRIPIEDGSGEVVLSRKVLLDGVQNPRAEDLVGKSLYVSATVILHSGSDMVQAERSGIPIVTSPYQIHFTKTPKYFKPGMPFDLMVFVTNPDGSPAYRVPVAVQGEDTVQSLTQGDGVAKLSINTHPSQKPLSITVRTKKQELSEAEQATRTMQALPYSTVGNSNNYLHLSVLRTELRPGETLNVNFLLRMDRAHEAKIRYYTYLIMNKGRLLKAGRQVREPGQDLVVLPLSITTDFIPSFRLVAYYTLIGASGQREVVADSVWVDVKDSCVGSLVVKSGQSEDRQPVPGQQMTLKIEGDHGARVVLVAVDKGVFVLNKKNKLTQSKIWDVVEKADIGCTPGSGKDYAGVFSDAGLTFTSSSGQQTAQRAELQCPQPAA", "T1 sequence (P01024 749-1303 limits assumed, chain 2 of 3)": "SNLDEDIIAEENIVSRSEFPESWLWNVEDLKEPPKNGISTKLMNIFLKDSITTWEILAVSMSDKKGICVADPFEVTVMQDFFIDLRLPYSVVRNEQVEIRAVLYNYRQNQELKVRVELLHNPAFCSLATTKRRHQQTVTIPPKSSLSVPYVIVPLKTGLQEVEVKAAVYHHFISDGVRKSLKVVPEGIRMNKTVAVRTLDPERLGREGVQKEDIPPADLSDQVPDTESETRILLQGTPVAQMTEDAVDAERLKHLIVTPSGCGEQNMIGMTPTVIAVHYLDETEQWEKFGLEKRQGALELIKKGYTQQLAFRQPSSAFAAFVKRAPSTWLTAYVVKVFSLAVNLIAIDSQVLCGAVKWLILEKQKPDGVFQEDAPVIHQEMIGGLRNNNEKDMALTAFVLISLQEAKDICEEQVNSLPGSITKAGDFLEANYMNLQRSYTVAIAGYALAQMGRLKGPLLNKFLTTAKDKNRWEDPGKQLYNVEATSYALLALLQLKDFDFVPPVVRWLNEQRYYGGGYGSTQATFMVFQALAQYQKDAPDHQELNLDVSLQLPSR", "T1 sequence (P01024 1321-1663 limits assumed, chain 3 of 3)": "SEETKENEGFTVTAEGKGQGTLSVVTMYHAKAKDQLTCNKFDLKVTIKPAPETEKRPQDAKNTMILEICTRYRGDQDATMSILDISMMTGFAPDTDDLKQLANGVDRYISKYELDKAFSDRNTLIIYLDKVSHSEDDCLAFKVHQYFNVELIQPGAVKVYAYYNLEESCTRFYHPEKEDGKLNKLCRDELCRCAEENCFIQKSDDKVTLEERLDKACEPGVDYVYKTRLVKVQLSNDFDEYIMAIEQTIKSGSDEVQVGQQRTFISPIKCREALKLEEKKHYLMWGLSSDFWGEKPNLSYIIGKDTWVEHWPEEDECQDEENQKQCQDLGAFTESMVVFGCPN", "assay": "BLI (GatorPrime), His-tagged protein on Ni-NTA probe, ligand in 7-point dilution series", "description": "The binding kinetics of CR2-CR1 fusion proteins, human CR1, and human CR2 to their respective ligands were determined using biolayer interferometry (BLI) with a GatorPrime instrument (Gator Bio). Recombinant His-tagged human CR1 (R&D Systems), human CR2 (R&D Systems), or CR2-CR1 fusion proteins (GenScript) were immobilized onto Ni-NTA probes, and the response signals from the protein-loaded probes binding to C3d, iC3b, C3b, or C4b (Complement Tech) in a 7-point dilution series were measured for a 300 second association step, followed by a 300 second dissociation step in assay buffer. To reduce assay background/noise due to non-specific complement protein binding, a double reference was applied using a 0 nM ligand condition (Sample or Reference Probe Blank) and a series of Ni-NTA probes not loaded with protein (Reference Probe) according to the following equation: Sample Response=(Sample Signal−Reference Probe Signal)−(Sample Blank Signal−Reference Probe Blank Signal). The binding affinity constant, KD, and association/dissociation rate constants, kₒₙ/koff, for all binding interactions were calculated using the GatorOne software (Gator Bio)."}, "[6]": {"molecular_target": "T1, iC3b (Complement Tech)", "assay": "SPR (Biacore 8K), His-tagged receptor captured by anti-His on CM5, iC3b analyte 19.5-1250 nM, steady state affinity", "description": "The binding of recombinant human CR1, recombinant human CR2, and recombinant CR2CR1 #1 (SEQ ID NO: 22), and recombinant CR2CR1 #7 (SEQ ID NO: 12) protein to their respective ligands C3b, C4b, iC3b, and/or C3d was analyzed using a Biacore 8K SPR system (Cytiva). Histidine-tagged complement receptors and fusion proteins were immobilized onto Series S Sensor Chip CM5 using a His Antibody Capture Kit, with capture levels of 60-470 RU. C3b, C4b, iC3b, and C3d were prepared in 1×HBS-EP buffer (10 mM HEPES, 150 mM NaCl, 3 mM EDTA, and 0.05% v/v Surfactant P20), pH 7.4, at concentrations ranging from 3-16000 nM, and the analytes were injected at a flow rate of 30 μL/min. Binding at 25° C. was monitored for 150 seconds, followed by a dissociation phase of 300 seconds. Chip sensors were regenerated for 60 seconds with 10 mM glycine-HCl buffer, pH 1.5. The data were processed and analyzed with Biacore Insight Evaluation Software; a 1:1 binding model (C3b analyte) or steady state affinity (C4b, iC3b, C3d analytes) was used to calculate the apparent KD value and other kinetic parameters."}}, "data": [{"molecule": "recombinant CR2CR1 #1 (CR2-CR1 fusion protein, CR2 SCR1-4 fused to CR1 SCR1-10), His-tagged", "values": [{"measurement": "KD vs. hCR1 KD (X (fold of hCR1 KD))", "setting": "[1]", "result": 0.94}, {"measurement": "Kd", "setting": "[2]", "result": 12.4, "unit": "nM"}, {"measurement": "koff", "setting": "[2]", "result": 0.000694, "unit": "s⁻¹"}, {"measurement": "kon", "setting": "[2]", "result": 56000, "unit": "M⁻¹ s⁻¹"}, {"measurement": "Kd", "setting": "[3]", "result": 21100, "unit": "nM"}]}, {"molecule": "Recombinant His-tagged human CR1 (R&D Systems) (from UniProt P17927 42-1971) (receptor)", "values": [{"measurement": "Kd", "setting": "[2]", "result": 13.2, "unit": "nM"}, {"measurement": "koff", "setting": "[2]", "result": 0.000586, "unit": "s⁻¹"}, {"measurement": "kon", "setting": "[2]", "result": 44300, "unit": "M⁻¹ s⁻¹"}, {"measurement": "Kd", "setting": "[4]", "result": 3010, "unit": "nM"}]}, {"molecule": "recombinant CR2CR1 #7 (CR2-CR1 fusion protein, CR2 SCR1-4 fused to CR1 SCR1-4, 7-11, 14-17), His-tagged", "values": [{"measurement": "KD vs. hCR1 KD (X (fold of hCR1 KD))", "setting": "[1]", "result": 0.8}, {"measurement": "Kd", "setting": "[2]", "result": 10.5, "unit": "nM"}, {"measurement": "koff", "setting": "[2]", "result": 0.000663, "unit": "s⁻¹"}, {"measurement": "kon", "setting": "[2]", "result": 63300, "unit": "M⁻¹ s⁻¹"}]}, {"molecule": "B1", "values": [{"measurement": "Kd", "setting": "[5]", "result": 6.51, "unit": "nM"}, {"measurement": "koff", "setting": "[5]", "result": 0.000965, "unit": "s⁻¹"}, {"measurement": "kon", "setting": "[5]", "result": 148000, "unit": "M⁻¹ s⁻¹"}, {"measurement": "Kd", "setting": "[6]", "result": 439, "unit": "nM"}]}]}
